The source of these data is the RNAGym collection of RNA variant scans (doi:10.1093/nar/gkz1192).

B1: CPEB3 Ribozyme (parent)
chain: UAACAGGGGGCCACAGCAGAAGCGUUCACGUCGCAGCCCCUGUCAGAUUCUGGUGAAUCUGCGAAUUCUGCUGUAUAUCUC

The variants in this data set derive from B1. Nature of the data set: self-cleavage, relative activity (ratio to wild type); higher = more cleavage; in vitro, sequencing. In outline: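 Barcoded CPEB3 ribozyme mutants, produced by rounds of error-prone PCR, self-cleaved while being transcribed with T7 RNA polymerase for 5 hours at 37°C and during a subsequent 15 min DNase I step before EDTA was added. Sequencing of template-switched cDNA on Illumina gave cleaved and total reads, and DNA sequencing assigned barcodes to variants. Each variant's relative activity is its cleaved/total read fraction divided by the unmutated ribozyme's fraction, averaged across three batches. A variant needed a minimum of 5 reads.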
Consider G30C A57G, for which the self-cleavage is 0.25.
In the case of G30U G52A, the self-cleavage came to 0.17.
Under G30A G36A stands 0.4; under G30A G36U, 0.44.
G30C A65U: the self-cleavage was 0.3.
In the case of G30C A65C, the self-cleavage was found to be 0.11.
Under G30C A65G stands 0.11.
Under G30A A64U stands 0.34; under G30A A64G, 0.43.
With U31A U76C, the self-cleavage is 0.48.
Under G30U A56G stands 0.26; under U31C A35G, 1.21.
For U31C A35C, the self-cleavage amounted to 0.46.
On to U31C A35U, for which the self-cleavage came out at 0.32.
For U31A C62U, the self-cleavage worked out at 0.26.
As to U31A C62A, the self-cleavage is 0.28.
As for U31C U58G, the figure is 0.39; as for U31C U58A, 0.31; as for U31C U58C, 0.33.
As to U31C A77U, the self-cleavage came to 0.86.
As to U31C A77G, the self-cleavage turned out to be 0.94.
With U31A U43C, the self-cleavage stood at 0.37.
For the variant U31A U43A, the self-cleavage is 0.7.
In the case of U31A U43G, the self-cleavage was 0.33.
As to U31A U51A, the self-cleavage amounted to 0.59.
On to U31A U51G, for which the self-cleavage came to 0.33.
As for U31A U51C, the figure is 0.46; as for G30A C39U, 0.21; as for U31A A77U, 0.51.
With U31A A77G, the self-cleavage is 0.32.
Consider G30U U76C, for which the self-cleavage was determined as 0.39.
As to G30U U76A, the self-cleavage came to 0.5.
As for U31A C38U, the self-cleavage came out at 0.53.
Under U31C A75U stands 0.87.
U31C A75G: the self-cleavage worked out at 0.77.
On to U31C A75C, for which the self-cleavage is 1.1.
Take G30U A77G: the self-cleavage came out at 0.16.
On to U31C U41C, for which the self-cleavage amounted to 0.82.
As for U31C U41A, the self-cleavage worked out at 0.29.
For U31C U41G, the self-cleavage is 0.34.
Consider U31A G53A, for which the self-cleavage is 0.53.
In the case of U31A G53C, the self-cleavage is 0.51.
For the variant G30C U48C, the self-cleavage came to 0.16.
U31C U43A: the self-cleavage stood at 1.03.
For U31C U43C, the self-cleavage was 0.49.
On to U31C U43G, for which the self-cleavage amounted to 0.36.
Take G30U U60C: the self-cleavage stood at 0.15.
In the case of G30A G55A, the self-cleavage turned out to be 0.2.
Under U31A U69A stands 0.29; under U31A U69C, 0.3; under U31A U69G, 0.27.
With U31A U66C, the self-cleavage was determined as 0.26.
As for U31C U66C, the figure is 0.27; as for U31C U66A, 0.28; as for U31C U66G, 0.35.
As for G30U A57G, the self-cleavage turned out to be 0.13.
On to G30U A57U, for which the self-cleavage was 0.14.
In the case of G30C A64U, the self-cleavage came to 0.2.
As for G30A C34G, the figure is 0.38.
With U31A C79U, the self-cleavage worked out at 0.48.
As for U31C G55A, the self-cleavage was found to be 0.78.
Under U31C G55U stands 0.76.
G30C U67G: the self-cleavage came out at 0.09.
As for G30C U67A, the figure is 0.18; as for G30U U31C, 0.43.
With G30U G70C, the self-cleavage was found to be 0.15.
For G30C G33U, the self-cleavage was found to be 0.19.
Under U31C G53A stands 0.91.
Consider U31C G53U, for which the self-cleavage worked out at 1.06.
Take G30U U78C: the self-cleavage stood at 0.09.
Take G30U G33A: the self-cleavage worked out at 0.24.
For the variant G30A U80A, the self-cleavage stood at 0.22.
As to G30A U80C, the self-cleavage turned out to be 0.41.
Take U31A C59U: the self-cleavage amounted to 0.37.
For U31A C59A, the self-cleavage was found to be 0.17.
Under U31A C59G stands 0.19; under G30U C62A, 0.08; under U31A C39U, 0.34.
Regarding U31A C40U, the self-cleavage amounted to 0.27.
G30A U74A: the self-cleavage stood at 0.29.
For the variant G30A A77G, the self-cleavage was 0.4.
As for G30A A77U, the figure is 0.33.
Consider G30U U54C, for which the self-cleavage worked out at 0.14.
In the case of G30C U41C, the self-cleavage stood at 0.28.
Consider U31A A57G, for which the self-cleavage amounted to 0.53.
Take U31A C50U: the self-cleavage came out at 0.41.
Take U31A C71U: the self-cleavage came out at 0.29.
In the case of U31A C71G, the self-cleavage came out at 0.19.
Take U31A C71A: the self-cleavage stood at 0.17.
Turning to U31A U54C, the self-cleavage is 0.5.
On to U31A U54A, for which the self-cleavage was 0.55.
As for U31A U54G, the figure is 0.55.
As for G30C A45C, the self-cleavage is 0.34.
Turning to G30C A45U, the self-cleavage stood at 0.09.
G30U A35G: the self-cleavage was found to be 0.05.
As to G30A U58C, the self-cleavage was 0.16.
As for G30A U58A, the self-cleavage amounted to 0.09.
Take U31C U69G: the self-cleavage came to 0.41.
Regarding U31C U69A, the self-cleavage was found to be 0.37.
As to U31C U69C, the self-cleavage was 0.31.
On to G30C A75G, for which the self-cleavage worked out at 0.12.
As for U31C U67C, the figure is 0.26; as for U31C U67A, 0.34.
As to U31C C34A, the self-cleavage was 0.15.
Take U31C C34U: the self-cleavage came to 0.24.
With U31A A75U, the self-cleavage is 0.61.
As to U31A A75G, the self-cleavage turned out to be 0.47.
Under G30A C68U stands 0.12; under U31C C40U, 0.49.
For the variant U31C C40A, the self-cleavage came out at 0.2.
For the variant G30U C38U, the self-cleavage came out at 0.26.
Take U31A C32G: the self-cleavage was 0.12.
For the variant U31A C32U, the self-cleavage came to 0.13.
With U31A G52A, the self-cleavage turned out to be 0.69.
With U31A G52C, the self-cleavage is 0.5.
For U31C U49A, the self-cleavage came to 0.5.
Consider U31C U49G, for which the self-cleavage is 0.3.
In the case of U31C U49C, the self-cleavage was determined as 0.23.
Regarding U31A G55A, the self-cleavage worked out at 0.41.
On to G30A U60G, for which the self-cleavage was found to be 0.34.
Consider G30A U60A, for which the self-cleavage turned out to be 0.08.
G30A U60C: the self-cleavage came to 0.15.
Turning to G30U U69A, the self-cleavage is 0.1.
For U31C G52A, the self-cleavage came out at 1.06.
As for U31C G52C, the figure is 1.14; as for G30A U78C, 0.24.
Take G30A U78A: the self-cleavage was determined as 0.53.
Turning to G30C U78C, the self-cleavage was 0.38.
Under G30C U78G stands 0.2; under G30C U51C, 0.19.
In the case of U31C C37U, the self-cleavage turned out to be 0.46.
As for U31C C37A, the self-cleavage was 0.28.
As for U31A A64U, the figure is 0.29.
For U31A A64C, the self-cleavage turned out to be 0.14.
For the variant U31A A64G, the self-cleavage was 0.39.
In the case of G30U U41A, the self-cleavage is 0.16.
G30U U41G: the self-cleavage amounted to 0.13.
Consider G30U U41C, for which the self-cleavage worked out at 0.27.
As for G30U C79G, the self-cleavage worked out at 0.12.
Consider U31C U54G, for which the self-cleavage worked out at 0.68.
For the variant U31C U54C, the self-cleavage was 0.8.
Under U31C U54A stands 0.92; under G30C C62U, 0.06; under G30A G70A, 0.39.
As for U31C A45G, the figure is 0.52; as for U31C A45U, 0.32.
Consider U31C A45C, for which the self-cleavage was found to be 0.22.
With G30A G63U, the self-cleavage was determined as 0.13.
For the variant U31A U78G, the self-cleavage stood at 0.46.
U31A U78C: the self-cleavage amounted to 0.46.
Take U31A U78A: the self-cleavage was 0.41.
Take U31C C68U: the self-cleavage was found to be 0.75.
On to U31C C68A, for which the self-cleavage stood at 0.28.
As for U31C G42A, the figure is 0.35.
Regarding U31C G42U, the self-cleavage amounted to 0.13.
Consider U31A A45G, for which the self-cleavage stood at 0.35.
As for U31A A45U, the self-cleavage is 0.32.
Turning to G30A G61C, the self-cleavage is 0.24.
As to U31A U72C, the self-cleavage was determined as 0.66.
In the case of U31A U72A, the self-cleavage came to 0.41.
U31A G46C: the self-cleavage was determined as 0.2.
On to U31A G46U, for which the self-cleavage worked out at 0.12.
Regarding U31A, the self-cleavage stood at 0.56.
Consider U31C, for which the self-cleavage was found to be 0.87.
With U31A U74C, the self-cleavage came out at 0.77.
As for U31A U74G, the figure is 0.84.
Under U31A U74A stands 0.74.
